This is an account of results in patent US20080286284A1 (published 2008).

Where a chain is given by its changes, count along the chain named. “And” between values parts separate entries of the source, which are not always exact repeats. Identical values can stand only once. Bounds are passed on as bounds.

The Kd is the concentration at which binding is half-saturated. A word on the koff: it is the first-order rate constant of dissociation. As a reminder, the kon is the second-order rate constant of association.

Test [1] has as its target T1, prostate specific membrane antigen (PSMA), full-length human (human, UniProt Q04609 1-750).
T1 construct: also called cell-surface PSMA; full-length PSMA
Description: FACS, supernatant.

Test [2] concerns the target T1, prostate specific membrane antigen …. Description: lysate EIA, supernatant.
The target of test [3] is T2, recombinant soluble PSMA (rsPSMA) (human, UniProt Q04609 44-750).
T2 construct: also called rsPSMA dimer; secreted rsPSMA
In words: Biacore, rsPSMA. The method, then:
(§1) The streptavidin-coated sensor chips (SA chips, Biacore) were used to capture biotinylated anti-human IgG antibody (Sigma, St. Louis, Mo.). The entire sensor chip surface was conditioned with five injections of conditioning solution (1 M NaCl, 50 mM NaOH) and equilibrated with PBS buffer containing 0.005% polysorbate 20. Two to three thousand resonance units (RU) of biotinylated anti-human IgG antibody (Sigma) were immobilized onto the SA chip followed by an injection of regeneration buffer (glycine-HCl, pH 2.2). […] For each antibody at one concentration, the chip was regenerated and equilibrated. […] Thermodynamic and kinetic rate constants of binding were calculated using the Biacore Evaluation software.
On the technique in general: SPR reads the build-up and loss of mass on a sensor chip optically.

For test [4], the target named is T2, recombinant soluble PSMA (rsPSMA). In words: Biacore, captured mAb, rsPSMA in flow. The method, then: (§2) To determine the kinetics and affinity of the antibodies, the antibodies in crude supernatants, in purified form and in bifunctional chelate modified forms were analyzed using a Biacore 3000 instrument (Biacore Inc., Piscataway, N.J.). Biacore 3000 is a fully automated surface plasmon resonance (SPR)-based biosensor system that is designed to provide real-time kinetic data from assay formats that require no tags or labeling of compounds for biomolecular interactions. It is ideal for screening crude supernatants.
as §1

The target is the same in test [5]. In words: Biacore; Avg KD of purified 006. Here is the method:
as §2, §1

Test [6] deals with T1, prostate specific membrane antigen …. Description: FACS, 3T3-PSMA cells. Here is the method: Control anti-human IgG (Caltag, Burlingame, Calif.) was used to establish background binding. After two washes in PBS, the cells were incubated with anti-human IgG (BD Pharmingen, San Diego, Calif.) for 30 minutes on ice. Cells were washed twice in PBS, resuspended in 250 μl PBS and analyzed by flow cytometry using a FACScan machine (Becton Dickinson, Franklin Lakes, N.J.) and CellQuest software. Viable cells were gated by forward scatter and side scatter parameters, and binding was quantified using histogram plots of mean fluorescence intensity (MFI) levels.
Background: A flow cytometer gives signals particle by particle.

For test [7], the target named is T2, recombinant soluble PSMA (rsPSMA). In words: cell-based or functional assay.
The target is the same in test [8]. Description: Biacore; Avg KD. The method, then: as §2, §1
Test [9] deals with T1, prostate specific membrane antigen …. Description: FACS, C4-2 cells.
Test [10] concerns the target T2, recombinant soluble PSMA (rsPSMA). In words: Biacore; Avg KD of purified 10.3. The method, then:
as §2, §1

The target of test [11] is T1, prostate specific membrane antigen …. In words: cell-based or functional assay.

T2 sequence (Q04609 44-750): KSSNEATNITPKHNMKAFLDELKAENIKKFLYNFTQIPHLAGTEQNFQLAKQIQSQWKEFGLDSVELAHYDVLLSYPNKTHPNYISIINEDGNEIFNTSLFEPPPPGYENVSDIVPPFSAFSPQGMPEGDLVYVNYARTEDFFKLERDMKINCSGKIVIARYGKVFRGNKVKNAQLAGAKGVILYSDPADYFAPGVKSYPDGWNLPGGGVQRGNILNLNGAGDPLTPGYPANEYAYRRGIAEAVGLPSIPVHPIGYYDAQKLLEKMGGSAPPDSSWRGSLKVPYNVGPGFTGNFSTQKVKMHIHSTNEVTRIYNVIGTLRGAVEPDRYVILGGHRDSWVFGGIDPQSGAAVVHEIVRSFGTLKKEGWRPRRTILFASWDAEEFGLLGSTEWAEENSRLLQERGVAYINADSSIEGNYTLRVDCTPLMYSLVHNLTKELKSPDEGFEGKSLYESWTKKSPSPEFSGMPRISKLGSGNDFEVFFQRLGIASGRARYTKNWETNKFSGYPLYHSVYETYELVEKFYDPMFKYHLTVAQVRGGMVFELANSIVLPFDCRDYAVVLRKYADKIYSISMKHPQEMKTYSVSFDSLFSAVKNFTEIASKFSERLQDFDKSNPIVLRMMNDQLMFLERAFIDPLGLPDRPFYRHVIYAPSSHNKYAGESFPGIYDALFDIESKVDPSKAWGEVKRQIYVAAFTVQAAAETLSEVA
T1 sequence (Q04609 whole entry): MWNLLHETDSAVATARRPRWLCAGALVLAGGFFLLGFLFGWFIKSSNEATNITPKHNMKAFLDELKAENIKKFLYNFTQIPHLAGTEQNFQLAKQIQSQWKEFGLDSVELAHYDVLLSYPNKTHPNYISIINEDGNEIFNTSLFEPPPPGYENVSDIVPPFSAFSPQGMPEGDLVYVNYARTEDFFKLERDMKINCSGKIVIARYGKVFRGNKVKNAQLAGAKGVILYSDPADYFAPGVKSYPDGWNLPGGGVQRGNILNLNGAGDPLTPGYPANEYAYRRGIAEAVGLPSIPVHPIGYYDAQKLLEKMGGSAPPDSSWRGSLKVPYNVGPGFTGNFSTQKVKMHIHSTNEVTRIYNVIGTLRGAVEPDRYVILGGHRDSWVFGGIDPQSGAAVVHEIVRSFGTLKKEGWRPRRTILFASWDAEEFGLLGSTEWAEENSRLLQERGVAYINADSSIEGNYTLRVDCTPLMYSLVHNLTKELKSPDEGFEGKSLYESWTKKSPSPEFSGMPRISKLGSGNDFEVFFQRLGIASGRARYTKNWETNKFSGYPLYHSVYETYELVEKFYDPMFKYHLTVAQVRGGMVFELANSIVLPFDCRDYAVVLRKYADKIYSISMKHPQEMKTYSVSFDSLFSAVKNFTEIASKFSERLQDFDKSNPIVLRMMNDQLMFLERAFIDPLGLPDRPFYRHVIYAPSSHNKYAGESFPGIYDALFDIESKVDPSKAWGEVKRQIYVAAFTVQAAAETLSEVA

B1: AB-PG1-XG1-006 (antibody, V domains shown)
VH: QVQLVESGGGVVQPGRSLRLSCAASGFAFSRYGMHWVRQAPGKGLEWVAVIWYDGSNKYYADSVKGRFTISRDNSKNTQYLQMNSLRAEDTAVYYCARGGDFLYYYYYGMDVWGQGTTVTVSS
VL: DIQMTQSPSSLSASVGDRVTITCRASQGISNYLAWYQQKTGKVPKFLIYEASTLQSGVPSRFSGGGSGTDFTLTISSLQPEDVATYYCQNYNSAPFTFGPGTKVDIK
notes: also called XG-006; PRGX1-XG1-006
On to B1, for which, in [1], the “PGNX FACS” value was 114. For the same molecule, the “Lysate EIA” value in [2] was found to be 0.39. Moreover, the equilibrium dissociation constant (Kd) in [3] is 0.48 nM; in test [4], 0.466 nM and 0.562 nM and 0.492 nM; in test [5], 0.514 nM; in test [8] it was 0.492 nM. Also, the off-rate constant (koff) was 6.4e-05 s⁻¹ in [3]; 0.000137 s⁻¹ and 0.000127 s⁻¹ and 6.4e-05 s⁻¹ in test [4]. The kon in [3] is 130000 M⁻¹ s⁻¹; in test [4], 294000 M⁻¹ s⁻¹ and 226000 M⁻¹ s⁻¹ and 130000 M⁻¹ s⁻¹. Further, the “AVG Max binding” value in test [6] amounted to 183. In addition, in test [7], the “IC50, folate hydrolase activity” value was 9.34 µg/mL. In addition, in [9], the “C4.2 FACS” value was found to be 9.5.

B2: AB-PG1-XG1-069 (antibody, V domains shown)
VH: EVQLVQSGAEVKKPGESLKISCKGSGYSFTSYWIGWVRQMPGKGLEWMGIIYPGDSDTRYSPSFQGQVTISADKSISTAYLQWSSLKASDTAMYYCARRMAAAGPFDYWGQGTLVTVSS
VL: GIVMTQSPATLSVSPGERATLSCRTSQSIGWNLAWYQQKPGQAPRLLIYGASSRTTGIPARFSGSGSGTEFTLTISSLQSEDSAVYYCQHYDNWPMCSFGQGTELEIK
notes: also called PRGX1-XG1-069
Consider B2, for which, in [3], the binding result is “no binding”. Also, in test [6], the “AVG Max binding” value was 71.

B3: PSMA 10.3 (antibody, V domains shown)
VH: QEQLVESGGGVVQPGRSLRLSCAASGFTFSTYGMHWVRQAPGKGLEWVAVTWHDGSNKYYADSVKGRFTISRDNSKNTLYLQMNSLRAEDTAVYYCARGGVGATYYYYYGMDVWGQGTTVTVSS
VL: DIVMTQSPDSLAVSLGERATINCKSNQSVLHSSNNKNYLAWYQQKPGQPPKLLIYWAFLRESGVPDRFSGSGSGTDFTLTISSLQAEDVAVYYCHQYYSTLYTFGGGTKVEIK
On to B3, for which the “Lysate EIA” value in test [2] turned out to be 1.06. The dissociation constant (Kd) in [3] was found to be 1.9 nM; in test [8], 1.91 nM; in test [10], 0.205 nM. Also, the off-rate constant (koff) in test [3] came to 0.000364 s⁻¹. The kon is 190000 M⁻¹ s⁻¹ in test [3]; 190000 M⁻¹ s⁻¹ and 328000 M⁻¹ s⁻¹ and 296000 M⁻¹ s⁻¹ in test [4]. Also, in test [6], the “AVG Max binding” value came out at 181.

B4: ^225Ac labeled mAb 026 (antibody, V domains shown)
VH: QVQLVESGGGVVQPGRSLRLSCAASGFTFSNYVMHWVRQAPGKGLEWVAIIWYDGSNKYYADSVKGRFTISRDNSKNTLYLQMNSLRAEDTAVYYCAGGYNWNYEYHYYGMDVWGQGTTVTVSS
VL: DIQMTQSPSSLSASVGDRVTITCRASQGITNYLAWFQQKPGKAPKSLIYAASSLQSGVPSKFSGSGSGTDFSLTISSLQPEDFATYYCQQYNSYPITFGQGTRLEIK
B4: in [11], the “IC50, ^3H thymidine incorporation, C4-2 cells” value was 0.12 nCi/mL; the “IC50, cytotoxicity on C4-2 and LNCaP cells” value was less than 1 nCi/mL; the “selectivity of killing vs. control antibody (HuIgG)” value was more than 50 fold; the “selectivity of killing vs. control mAb (HuM195)” value was more than 100 fold. For the same molecule, the “selectivity of killing, C4-2 vs. PC3” value in test [11] is more than 50 fold.

B5: AB-PG1-XG1-026 (antibody, V domains shown)
VH: B4 VH
VL: B4 VL
notes: also called XG-026; PRGX1-XG1-026
Take B5: in [3], the equilibrium dissociation constant (Kd) is 0.2 nM, the koff was found to be 2.9e-05 s⁻¹ and the kon was determined as 150000 M⁻¹ s⁻¹. The “AVG Max binding” value in test [6] was 148. Also, in test [7], the “IC50, folate hydrolase activity” value was 1.39 µg/mL.

B6: AB-PG1-XG1-051 (antibody, V domains shown)
VH: QVQLVESGGGVVQPGRSLRLSCAASGFTFSSYGMHWVRQAPGKGLDWVAIIWHDGSNKYYADSVKGRFTISRDNSKKTLYLQMNSLRAEDTAVYYCARAWAYDYGDYEYYFGMDVWGQGTTVTVSS
VL: B4 VL with T30S, N31H, S72T, Y94F, I96L, Q100G, R103K, L104V
notes: also called XG-051; PRGX1-XG1-051
Turning to B6, in test [1], the “PGNX FACS” value is 83. The “Lysate EIA” value in [2] stood at 0.48. In test [3], the Kd came out at 0.58 nM, the koff amounted to 8.2e-05 s⁻¹ and the kon was 140000 M⁻¹ s⁻¹. Also, the “AVG Max binding” value in test [6] amounted to 202. In [9], the “C4.2 FACS” value was 9.9.

B7: AB-PG1-XG1-077 (antibody, V domains shown)
VH: QVQLVESGGGVVQPGRSLRLSCAASGFTFISYGMHWVRQAPGKGLEWVAVISYDGSNKYYADSVKGRFTISRDNSKNTLYLQMNSLRAEDTAVYYCARVLVGALYYYNYYGMDVWGQGTTVTVSS
VL: DIVMTQTPLSLSVTPGQPASISCKSSQSLLHSDGKTFLYWYLQKPGQPPQLLIYEVSNRFSGVPDRFSGSGSGTDFTLKISRVEAEDVGLYYCMQSIQLPLTFGGGTKVEIK
notes: also called PRGX1-XG1-077
For B7, the “PGNX FACS” value in test [1] was found to be 392. Also, in [2], the “Lysate EIA” value amounted to 0.45. In test [3], the Kd was found to be 1.6 nM, the off-rate (koff) stood at 0.000104 s⁻¹ and the kon stood at 60000 M⁻¹ s⁻¹. In addition, the “AVG Max binding” value in [6] worked out at 227. Further, the “C4.2 FACS” value in [9] came out at 12.4.
